Laboratory results: patent US10005829B2, “Synthetic linear apelin mimetics for the treatment of heart failure” (priority 2012, dated 2018)
One block for each binder: values may come before it. [ ]: non-standard residue; d: D form. pGlu = O=C1CC[C@@H](C(=O)O)N1; dNle = CCCC[C@@H](N)C(=O)O

Biological target: T1, APJ receptor (human, UniProt P35414 1-380)
T1 sequence (looked up): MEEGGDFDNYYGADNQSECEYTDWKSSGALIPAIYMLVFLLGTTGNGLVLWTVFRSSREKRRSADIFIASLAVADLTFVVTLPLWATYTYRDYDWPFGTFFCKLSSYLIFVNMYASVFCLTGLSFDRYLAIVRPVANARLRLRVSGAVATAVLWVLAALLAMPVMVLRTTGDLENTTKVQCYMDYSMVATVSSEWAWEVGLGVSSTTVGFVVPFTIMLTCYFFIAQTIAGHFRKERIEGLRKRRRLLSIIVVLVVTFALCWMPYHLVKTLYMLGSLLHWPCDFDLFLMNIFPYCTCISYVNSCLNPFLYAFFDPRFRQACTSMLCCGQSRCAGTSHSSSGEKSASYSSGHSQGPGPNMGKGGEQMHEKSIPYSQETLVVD
Experiment: cell-based or functional assay

hAPJ Ca^2+ Flux EC50: 1.5 nM
B1: pE-R-P-R-L-a-H-K-G-P-f-a-f-OH (peptide)
peptide: [pGlu]RPRL[dA]HKGP[dF][dA][dF]-OH
SMILES: CC(C)C[C@H](NC(=O)[C@H](CCCNC(=N)N)NC(=O)[C@@H]1CCCN1C(=O)[C@H](CCCNC(=N)N)NC(=O)[C@@H]1CCC(=O)N1)C(=O)N[C@H](C)C(=O)N[C@@H](Cc1c[nH]cn1)C(=O)N[C@@H](CCCCN)C(=O)NCC(=O)N1CCC[C@H]1C(=O)N[C@H](Cc1ccccc1)C(=O)N[C@H](C)C(=O)N[C@H](Cc1ccccc1)C(=O)O

hAPJ Ca^2+ Flux EC50: 7.9 nM
B2: pE-R-P-R-L-v-H-K-G-P-nle-a-f-OH (peptide)
peptide: [pGlu]RPRL[dV]HKGP[dNle][dA][dF]-OH
SMILES: CCCC[C@@H](NC(=O)[C@@H]1CCCN1C(=O)CNC(=O)[C@H](CCCCN)NC(=O)[C@H](Cc1c[nH]cn1)NC(=O)[C@H](NC(=O)[C@H](CC(C)C)NC(=O)[C@H](CCCNC(=N)N)NC(=O)[C@@H]1CCCN1C(=O)[C@H](CCCNC(=N)N)NC(=O)[C@@H]1CCC(=O)N1)C(C)C)C(=O)N[C@H](C)C(=O)N[C@H](Cc1ccccc1)C(=O)O

hAPJ Ca^2+ Flux EC50: 200 nM
B3: pE-R-P-R-L-a-H-E-G-P-nle-a-f-OH (peptide)
peptide: [pGlu]RPRL[dA]HEGP[dNle][dA][dF]-OH
SMILES: CCCC[C@@H](NC(=O)[C@@H]1CCCN1C(=O)CNC(=O)[C@H](CCC(=O)O)NC(=O)[C@H](Cc1c[nH]cn1)NC(=O)[C@@H](C)NC(=O)[C@H](CC(C)C)NC(=O)[C@H](CCCNC(=N)N)NC(=O)[C@@H]1CCCN1C(=O)[C@H](CCCNC(=N)N)NC(=O)[C@@H]1CCC(=O)N1)C(=O)N[C@H](C)C(=O)N[C@H](Cc1ccccc1)C(=O)O

hAPJ Ca^2+ Flux EC50: 7.4 nM
B4: pE-R-P-R-L-a-H-Q-G-P-nle-a-f-OH (peptide)
peptide: [pGlu]RPRL[dA]HQGP[dNle][dA][dF]-OH
SMILES: CCCC[C@@H](NC(=O)[C@@H]1CCCN1C(=O)CNC(=O)[C@H](CCC(N)=O)NC(=O)[C@H](Cc1c[nH]cn1)NC(=O)[C@@H](C)NC(=O)[C@H](CC(C)C)NC(=O)[C@H](CCCNC(=N)N)NC(=O)[C@@H]1CCCN1C(=O)[C@H](CCCNC(=N)N)NC(=O)[C@@H]1CCC(=O)N1)C(=O)N[C@H](C)C(=O)N[C@H](Cc1ccccc1)C(=O)O

hAPJ Ca^2+ Flux EC50: 55.1 nM
Binder: [pGlu]RPRLA[dH]KGP[dNle][dA][dF]-OH [pE-R-P-R-L-A-h-K-G-P-nle-a-f-OH]

hAPJ Ca^2+ Flux EC50: 3.1 nM
Binder: ERPRLAHKGPLF (pE at 1; D-Ala at 6; D-Nle at 11; D-Phe at 12) [pE-R-P-R-L-a-H-K-G-P-nle-f-OH]

hAPJ Ca^2+ Flux EC50: 6.8 nM
B5: pE-R-P-R-L-S-h-K-G-P-nle-a-f-OH (peptide)
peptide: [pGlu]RPRLS[dH]KGP[dNle][dA][dF]-OH
SMILES: CCCC[C@@H](NC(=O)[C@@H]1CCCN1C(=O)CNC(=O)[C@H](CCCCN)NC(=O)[C@@H](Cc1c[nH]cn1)NC(=O)[C@H](CO)NC(=O)[C@H](CC(C)C)NC(=O)[C@H](CCCNC(=N)N)NC(=O)[C@@H]1CCCN1C(=O)[C@H](CCCNC(=N)N)NC(=O)[C@@H]1CCC(=O)N1)C(=O)N[C@H](C)C(=O)N[C@H](Cc1ccccc1)C(=O)O

hAPJ Ca^2+ Flux EC50: 95.9 nM
B6: pE-R-P-R-L-a-H-K-D-P-nle-a-f-OH (peptide)
peptide: [pGlu]RPRL[dA]HKDP[dNle][dA][dF]-OH
SMILES: CCCC[C@@H](NC(=O)[C@@H]1CCCN1C(=O)[C@H](CC(=O)O)NC(=O)[C@H](CCCCN)NC(=O)[C@H](Cc1c[nH]cn1)NC(=O)[C@@H](C)NC(=O)[C@H](CC(C)C)NC(=O)[C@H](CCCNC(=N)N)NC(=O)[C@@H]1CCCN1C(=O)[C@H](CCCNC(=N)N)NC(=O)[C@@H]1CCC(=O)N1)C(=O)N[C@H](C)C(=O)N[C@H](Cc1ccccc1)C(=O)O
